Columns and labels:
[1] = target: the molecule itself; test: self-association (Fc homodimer); co-transfection of wild-type Okt:Fc in 293F cells, Capture Select IgM immunoprecipitation, non-reducing SDS-PAGE (FIG. 8, lane 1)
[2] = target: T1, Fc2b (human µ chain CH2 to CH4 with C291S, L352S, T354K, H395V and I397K mutations and tail piece deletion) (human, UniProt P01871 112-433); test: co-transfection in 293F cells, Capture Select IgM immunoprecipitation, non-reducing SDS-PAGE (FIG. 6, lane 2)
T1 construct: also called Pc2b
T1 chain: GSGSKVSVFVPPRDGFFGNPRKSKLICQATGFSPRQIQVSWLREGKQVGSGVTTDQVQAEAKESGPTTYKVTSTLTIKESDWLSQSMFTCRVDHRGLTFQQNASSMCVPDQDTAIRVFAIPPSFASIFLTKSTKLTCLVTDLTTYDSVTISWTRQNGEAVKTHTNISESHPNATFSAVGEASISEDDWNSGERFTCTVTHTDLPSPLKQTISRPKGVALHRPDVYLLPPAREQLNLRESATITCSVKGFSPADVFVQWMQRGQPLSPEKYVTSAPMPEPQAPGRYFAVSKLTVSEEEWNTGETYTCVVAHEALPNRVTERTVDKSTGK
Procedure: (§1) IgM was made by co-transfection of several different expression vectors at equal molar ratios into mammalian cells, such as 293F cells (Invitrogen). 10 μg of mixed DNA for expression vectors were mixed with 20 μl of 293Fectin (Invitrogen) for 30 minutes at room temperature in 2 ml of Opti-MEM (Invitrogen) and then added to 10⁷ 293F cells. Transfections with 293F cells were incubated for 72 hours post-transfection before harvesting the supernatant.
(§2) b. Protein purification by immunoprecipitation. [0243] i. Capture Select IgM (Catalog 2890.05, BAC, Thermo Fisher) [0244] Transfected supernatant were harvested by centrifugation at 2,000 G for 10 minutes. IgM proteins were purified by immunoprecipitation with affinity Capture Select IgM affinity matrix. 100 μl of Capture Select IgM slurry were added to 15 ml of harvested supernatant. […] The affinity matrixes were further washed with 60 μl of PBS and the supernatant were pooled for analysis by gel electrophoresis.
(§3) c. Gel electrophoresis [0246] i. Non-reducing SDS Page [0247] Non-reducing SDS PAGE was used to separate various mutant IgM proteins of different molecular weights. Novex 4-12% Bis-Tris Gel (Life Technologies) was used with Novex MES SDS Running Buffer (Life Technologies). [0248] II.

[3] = target: T2, Fc2a (human µ chain CH2 to CH4 region with C291S, T350Y, T354E and I397E mutations and tail piece deletion) (human, UniProt P01871 112-433); test: co-transfection in 293F cells, Capture Select IgM immunoprecipitation, non-reducing SDS-PAGE (FIG. 6, lane 3)
T2 chain: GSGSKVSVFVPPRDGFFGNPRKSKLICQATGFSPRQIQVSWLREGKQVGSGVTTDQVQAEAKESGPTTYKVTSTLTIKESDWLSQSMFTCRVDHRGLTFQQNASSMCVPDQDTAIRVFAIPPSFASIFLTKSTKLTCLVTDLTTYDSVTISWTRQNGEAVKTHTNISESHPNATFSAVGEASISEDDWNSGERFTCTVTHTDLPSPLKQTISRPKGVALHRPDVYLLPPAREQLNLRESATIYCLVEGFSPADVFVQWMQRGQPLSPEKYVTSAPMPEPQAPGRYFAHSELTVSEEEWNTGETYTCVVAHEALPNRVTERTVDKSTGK
Procedure: as §1, §2, §3

B1: Fc chain (human IgM µ chain CM2 to CM4, cMyc tag, tail piece replaced by 6His tag, C291S) (other)
chain: GSGSKVSVFVPPRDGFFGNPRKSKLICQATGFSPRQIQVSWLREGKQVGSGVTTDQVQAEAKESGPTTYKVTSTLTIKESDWLSQSMFTCRVDHRGLTFQQNASSMCVPDQDTAIRVFAIPPSFASIFLTKSTKLTCLVTDLTTYDSVTISWTRQNGEAVKTHTNISESHPNATFSAVGEASISEDDWNSGERFTCTVTHTDLPSPLKQTISRPKGVALHRPDVYLLPPAREQLNLRESATITCLVTGFSPADVFVQWMQRGQPLSPEKYVTSAPMPEPQAPGRYFAHSILTVSEEEWNTGETYTCVVAHEALPNRVTERTVDKSTGKGGGSEQKLISEEDLNSAVDHHHHHH
notes: Native CM4 interface; also called wild-type Fc
binding result [1]: binds

B2: Rtx2a (µ chain of chimeric Rituxan (anti-CD20) Vh fused with CM1 to CM4 of human µ chain with C291S, T350Y, T354E and I397E mutations and tail piece deletion) … (antibody)
heavy: QVQLQQPGAELVKPGASVKMSCKASGYTFTSYNMHWVKQTPGRGLEWIGAIYPGNGDTSYNQKFKGKATLTADKSSSTAYMQLSSLTSEDSAVYYCARSTYYGGDWYFNVWGAGTTVTVSSGSASAPTLFPLVSCENSPSDTSSVAVGCLAQDFLPDSITFSWKYKNNSDISSTRGFPSVLRGGKYAATSQVLLPSKDVMQGTDEHVVCKVQHPNGNKEKNVPLPVIAELPPKVSVFVPPRDGFFGNPRKSKLICQATGFSPRQIQVSWLREGKQVGSGVTTDQVQAEAKESGPTTYKVTSTLTIKESDWLSQSMFTCRVDHRGLTFQQNASSMCVPDQDTAIRVFAIPPSFASIFLTKSTKLTCLVTDLTTYDSVTISWTRQNGEAVKTHTNISESHPNATFSAVGEASISEDDWNSGERFTCTVTHTDLPSPLKQTISRPKGVALHRPDVYLLPPAREQLNLRESATIYCLVEGFSPADVFVQWMQRGQPLSPEKYVTSAPMPEPQAPGRYFAHSELTVSEEEWNTGETYTCVVAHEALPNRVTERTVDKSTGK
light: QIVLSQSPAILSASPGEKVTMTCRASSSVSYIHWFQQKPGSSPKPWIYATSNLASGVPVRFSGSGSGTSYSLTISRVEAEDAATYYCQQWTSNPPTFGGGTKLEIKRTVAAPSVFIFPPSDEQLKSGTASVVCLLNNFYPREAKVQWKVDNALQSGNSQESVTEQDSKDSTYSLSSTLTLSKADYEKHKVYACEVTHQGLSSPVTKSFNRGEC
notes: One HL half pairs with the partner µ chain
binding result [2]: binds

B3: Rtx2b (µ chain of chimeric Rituxan (anti-CD20) Vh fused with CM1 to CM4 of human mu chain with C291S, L352S, T354K, H395V and I397K mutations and tail piece … (antibody)
heavy: QVQLQQPGAELVKPGASVKMSCKASGYTFTSYNMHWVKQTPGRGLEWIGAIYPGNGDTSYNQKFKGKATLTADKSSSTAYMQLSSLTSEDSAVYYCARSTYYGGDWYFNVWGAGTTVTVSSGSASAPTLFPLVSCENSPSDTSSVAVGCLAQDFLPDSITFSWKYKNNSDISSTRGFPSVLRGGKYAATSQVLLPSKDVMQGTDEHVVCKVQHPNGNKEKNVPLPVIAELPPKVSVFVPPRDGFFGNPRKSKLICQATGFSPRQIQVSWLREGKQVGSGVTTDQVQAEAKESGPTTYKVTSTLTIKESDWLSQSMFTCRVDHRGLTFQQNASSMCVPDQDTAIRVFAIPPSFASIFLTKSTKLTCLVTDLTTYDSVTISWTRQNGEAVKTHTNISESHPNATFSAVGEASISEDDWNSGERFTCTVTHTDLPSPLKQTISRPKGVALHRPDVYLLPPAREQLNLRESATITCSVKGFSPADVFVQWMQRGQPLSPEKYVTSAPMPEPQAPGRYFAVSKLTVSEEEWNTGETYTCVVAHEALPNRVTERTVDKSTGK
light: QIVLSQSPAILSASPGEKVTMTCRASSSVSYIHWFQQKPGSSPKPWIYATSNLASGVPVRFSGSGSGTSYSLTISRVEAEDAATYYCQQWTSNPPTFGGGTKLEIKRTVAAPSVFIFPPSDEQLKSGTASVVCLLNNFYPREAKVQWKVDNALQSGNSQESVTEQDSKDSTYSLSSTLTLSKADYEKHKVYACEVTHQGLSSPVTKSFNRGEC
notes: as for B2
binding result [3]: binds

Reference: patent publication US20160222132A1 (IGM BIOSCIENES, published 2016)
